# Laboratory results from patent US20090232803A1 (Novartis, published 2009).
# T1: Human IL-1α (human, UniProt P01583 113-271)
# T1 sequence (looked up): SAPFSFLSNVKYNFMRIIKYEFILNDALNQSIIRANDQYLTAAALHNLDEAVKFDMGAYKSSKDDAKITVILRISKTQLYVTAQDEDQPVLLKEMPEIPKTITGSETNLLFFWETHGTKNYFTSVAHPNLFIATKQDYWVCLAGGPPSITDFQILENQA
# T2: Mouse IL-1β (mouse, UniProt P10749 118-269)
# T2 construct: also called murine IL-1β
# T2 sequence (looked up): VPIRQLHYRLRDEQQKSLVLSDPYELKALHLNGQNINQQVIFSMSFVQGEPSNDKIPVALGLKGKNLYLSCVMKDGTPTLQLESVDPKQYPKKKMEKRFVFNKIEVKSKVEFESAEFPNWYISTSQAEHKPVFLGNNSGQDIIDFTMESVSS
# T3: Rat IL-1β (rat, UniProt Q63264 117-268)
# T3 sequence (looked up): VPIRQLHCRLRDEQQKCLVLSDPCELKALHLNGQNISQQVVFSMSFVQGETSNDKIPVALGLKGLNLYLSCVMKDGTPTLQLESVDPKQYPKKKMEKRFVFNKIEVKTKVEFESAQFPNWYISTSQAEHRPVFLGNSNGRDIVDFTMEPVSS
# T4: Cynomolgus IL-1β (cynomolgus monkey, UniProt P79182 117-268)
# T4 construct: also called cynomolgus monkey IL-1β
# T4 sequence (looked up): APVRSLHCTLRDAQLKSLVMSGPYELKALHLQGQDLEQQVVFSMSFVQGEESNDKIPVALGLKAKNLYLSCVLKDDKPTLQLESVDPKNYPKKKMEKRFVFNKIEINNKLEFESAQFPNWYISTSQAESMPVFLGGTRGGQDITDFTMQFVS
# Tests used:
# [1] = biological target: T5, recombinant human IL-1β (human, UniProt P01584 117-269); experiment: Biacore competition: AAL160 immobilised on the chip, recombinant human IL-1β (8 nM) injected with increasing concentrations of soluble receptor type I; readout is % binding of IL-1β to AAL160 (competitor: AAL160)
# T5 construct: mature; it is entered under this molecule; also called human interleukin 1 beta; huIL-1β
# [2] = biological target: T5, recombinant human IL-1β; experiment: cell-based or functional assay
# [3] = biological target: T6, Human IL-1Ra (human, UniProt P18510 26-177); experiment: Biacore, AAL160 immobilised
# T6 construct: also called IL-1 receptor antagonist
# T6 sequence (P18510 26-177 limits assumed): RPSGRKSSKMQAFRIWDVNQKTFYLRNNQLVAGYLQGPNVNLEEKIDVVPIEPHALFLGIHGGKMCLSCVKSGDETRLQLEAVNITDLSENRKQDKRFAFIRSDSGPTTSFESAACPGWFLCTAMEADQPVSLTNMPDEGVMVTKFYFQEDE
# [4] = biological target: T1, Human IL-1α; experiment: Biacore, AAL160 immobilised
# [5] = biological target: T2, Mouse IL-1β; experiment: Biacore, AAL160 immobilised
# [6] = biological target: T3, Rat IL-1β; experiment: Biacore, AAL160 immobilised
# [7] = biological target: T5, recombinant human IL-1β; experiment: BIAcore SPR; AAL160 immobilised, recombinant IL-1β 0.5 to 12 nM, 1:1 model, n = 15
# Description: Data analysis is performed using the BIAevaluation software.
# [8] = biological target: T6, Human IL-1Ra; experiment: Biacore; AAL160 immobilised, cytokine at 8 nM (or 20 nM in the case of IL-1β)
# [9] = biological target: T4, Cynomolgus IL-1β; experiment: as above
# [10] = biological target: T1, Human IL-1α; experiment: as above
# [11] = biological target: T5, recombinant human IL-1β; experiment: as above
# [12] = biological target: T2, Mouse IL-1β; experiment: as above
# [13] = biological target: T3, Rat IL-1β; experiment: as above
Binder,IC50 [1],"IC50, IL-6 secretion, Recombinant (primary human dermal fibroblasts stimulated with recombinant IL-1β) [2]","IC50, IL-6 secretion, cond. Medium (primary human dermal fibroblasts stimulated with conditioned medium of LPS-stimulated human PBMCs, natural IL-1β) [2]","IC50, PGE2 production, cond. Medium (primary human dermal fibroblasts stimulated with conditioned medium of LPS-stimulated human PBMCs, natural IL-1β) [2]",binding result [3],binding result [4],binding result [5],binding result [6],Kd [7],koff [7],kon [7],Percent of total binding [8],Percent of total binding [9],Percent of total binding [10],Percent of total binding [11],Percent of total binding [12],Percent of total binding [13]
"recombinant human soluble IL-1 receptor type I (receptor, UniProt P14778 18-332, looked up, soluble; also called soluble IL-1 type I receptor; receptor I) LEADKCKEREEKIILVSSANEIDVRPCPLNPNEHKGTITWYKDDSKTPVSTEQASRIHQHKEKLWFVPAKVEDSGHYYCVVRNSSYCLRIKISAKFVENEPNLCYNAQAIFKQKLPVAGDGGLVCPYMEFFKNENNELPKLQWYKDCKPLLLDNIHFSGVKDRLIVMNVAEKHRGNYTCHASYTYLGKQYPITRVIEFITLEENKPTRPVIVSPANETMEVDLGSQIQLICNVTGQLSDIAYWKWNGSVIDEDDPVLGEDYYSVENPANKRRSTLITVLNISEIESRFYKHPFTCFAKNTHGIDAAYIQLIYPVT",3.4 nM,,,,,,,,,,,,,,,,
"AAL160 antibody (human IgG1/κ monoclonal antibody to human IL-1β) (antibody, V domains shown, It was purified from hybridoma supernatant on protein A; also called NVP AAL 160 NX-1; hybridoma # 476) VH: EVQLVQSGAEVKKPGESLKISCKGSGYSFTSYWIGWVRQMPGKGLEWMGIIYPSDSDTRYSPSFQGQVTISADKSISTAYLQWSSLKASDTAMYYCARYTNWDAFDIWGQGTMVTVSS VL: EIVLTQSPATLSLSPGERATLSCRASQSVSSYLAWYQQKPGQAPRLLIYDASNRATGIPARFSGSGSGTDFTLTISSLEPEDFAVYYCQQRSNWMFPFGQGTKLEIK",,0.34 nM,0.6 nM,0.79 nM,no binding (tested: 8 nM (or 20 nM in the case of IL-1β)),no binding (tested: 8 nM (or 20 nM in the case of IL-1β)),no binding (tested: 8 nM (or 20 nM in the case of IL-1β)),no binding (tested: 8 nM (or 20 nM in the case of IL-1β)),0.397 nM,0.000153 s⁻¹,391000 M⁻¹ s⁻¹,1.2%,96.4%,0.7%,100%,2.8%,3%
